Values of other authors, collected in patent publication US20250304696A1, “METHODS AND COMPOSITIONS FOR TREATING BARTH SYNDROME” (PROVENTION BIO, INC., priority 2021, published 2025).

B1: inebilizumab (antibody, chains of the INN, looked up, V domains shown)
VH: EVQLVESGGGLVQPGGSLRLSCAASGFTFSSSWMNWVRQAPGKGLEWVGRIYPGDGDTNYNVKFKGRFTISRDDSKNSLYLQMNSLKTEDTAVYYCARSGFITTVRDFDYWGQGTLVTVSS
VL: EIVLTQSPDFQSVTPKEKVTITCRASESVDTFGISFMNWFQQKPDQSPKLLIHEASNQGSGVPSRFSGSGSGTDFTLTINSLEAEDAATYYCQQSKEVPFTFGGGTKVEIK
notes: cell depleting agent

Test system: depleted cell types (B cells)
Conditions: patients receiving depleting agents

Time to recover the depleted cell types, up to a year:
ocrelizumab
rituximab
B1
